Experimental findings from US7074761B1, “Peptides and production and use thereof” (Takeda Chemical Ind., Ltd., priority 1996, dated 2006) are described below.

Assay [1] concerns the target T1, human SSTR4 (Homo sapiens, UniProt P31391).
T1 construct: expressed in transfected cells; host or cells: CHO(dhfr-) cells, clone SSTR4-1-2, plasmid pA-1-11-SSTR4 (vector pAKKO-111)
The experiment in a line: [125I]-somatostatin binding inhibition, SSTR4 CHO cell membrane fraction. The following applies: 25° C., 60 minutes. The procedure: CHO(dhfr^−) cells (1×10^6 cells) were cultured on HAM F12 medium containing 10% fetal bovine serum in a dish with a diameter of 8 cm for 24 hours. Into these cells was introduced 10 μg of the human SSTR4 DNA expression plasmid pA-1-11-SSTR4 obtained as described above in (2) by the calcium phosphate method (Cell Phect Transfection Kit; Pharmacia). At 24 hours after transfection, the medium was exchanged for DMEM containing 10% dialyzed fetal bovine serum, and cells forming a colony on this medium (namely DHFR^+ cells) were selected. Further, the cells selected were treated by the limiting dilution method for cloning from a single cell, and the cells thus cloned were measured for their somatostatin receptor protein expression ability by the binding assay described in Reference Example 1 (3). In this manner, a cell line with high somatostatin-binding activity, SSTR4-1-2, was selected.
The human somatostatin receptor expressing CHO cell lines SSTR1-8-3, SSTR2-HS5-9, SSTR3-15-19, SSTR4-1-2 and SSTR5-32-4 (10^9 cells each) were respectively suspended in phosphate buffered physiological saline supplemented with 5 mM EDTA (PBS-EDTA) and centrifuged. To each cell pellet was added 10 ml of cell homogenation buffer (10 mM NaHCO3, 5 mM EDTA, pH=7.5), followed by homogenation with a Polytron homogenizer. The homogenate was centrifuged at 400×g for 15 minutes, and the supernatant obtained was further centrifuged at 100,000×g for 1 hour to give a membrane fraction as a precipitate. […]
(§1) The membrane fractions prepared in Reference Example 6 were each diluted to 3 μg/ml with assay buffer. […] After filtration, the radioactivity of [^125I]-somatostatin remaining on the filter paper was measured. For each test substance, the binding inhibition percentage (%) was calculated according to the formula: PBM=(B−NSB)/(B0−NSB)×100 (where PBM: percent maximum binding; B: radioactivity when the test sample is added; B0: maximum bound radioactivity; NSB: non-specifically bound radioactivity). […]

Assay [2] addresses T2, human SSTR5 (Homo sapiens, UniProt P35346).
T2 construct: expressed in transfected cells; host or cells: CHO(dhfr-) cells, clone SSTR5-32-4, plasmid pA-1-11-SSTR5 (vector pAKKO-111)
The experiment in a line: [125I]-somatostatin binding inhibition, SSTR5 CHO cell membrane fraction. The note with it: 25° C., 60 minutes. As to the method:
CHO(dhfr^−) cells (1×10^6 cells) were cultured on HAM F12 medium containing 10% fetal bovine serum in a dish with a diameter of 8 cm for 24 hours. Into these cells was introduced 10 μg of the human SSTR5 cDNA expression plasmid pA-1-11-SSTR5 obtained as described above in (2) by the calcium phosphate method (Cell Phect Transfection Kit; Pharmacia). At 24 hours after transfection, the medium was exchanged for DMEM containing 10% dialyzed fetal bovine serum, and cells forming a colony on this medium (namely DHFR^+ cells) were selected. Further, the cells selected were treated by the limiting dilution method for cloning from a single cell, and the cells thus cloned were measured for their somatostatin receptor protein expression ability by the binding assay described in Reference Example 1 (3). In this manner, a cell line with high somatostatin-binding activity. SSTR5-32-4, was selected. […]
as §1

In assay [3] the target is T3, human somatostatin receptor protein subtype 2 (SSTR2) (human, UniProt P30874 1-369).
T3 construct: whole, on cells; also called cell line SSTR2-HS5-9
T3 sequence (P30874 whole entry): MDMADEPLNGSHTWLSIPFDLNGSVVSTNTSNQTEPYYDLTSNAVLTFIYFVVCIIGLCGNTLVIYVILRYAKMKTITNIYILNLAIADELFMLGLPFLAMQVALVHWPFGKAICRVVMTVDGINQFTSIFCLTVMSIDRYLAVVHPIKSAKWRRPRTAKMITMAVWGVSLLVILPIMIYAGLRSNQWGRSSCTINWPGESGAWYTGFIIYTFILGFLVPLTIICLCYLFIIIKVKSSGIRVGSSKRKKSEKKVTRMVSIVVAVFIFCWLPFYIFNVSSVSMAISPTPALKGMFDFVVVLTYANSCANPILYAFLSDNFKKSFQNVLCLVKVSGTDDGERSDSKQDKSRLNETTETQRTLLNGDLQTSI
Nature of the assay: displacement of 200 pM [125I]-somatostatin from membrane fraction of CHO cells expressing the human receptor; filter binding, Hill plot. As to the method:
(§2) The membrane fractions prepared in Reference Example 6 were each diluted to 3 µg/ml with assay buffer. […] After 60 minutes of reaction at 25° C., each reaction mixture was suction-filtered using a polyethyleneimine-treated Whatman glass filter (GF-B). […] For each test substance, the binding inhibition percentage (%) was calculated according to the formula:
(§3) PBM=(B-NSB)/(B_0-NSB)×100 (where PBM: percent maximum binding; B: radioactivity when the test sample is added; B_0: maximum bound radioactivity; NSB: non-specifically bound radioactivity).

Assay [4] concerns the target T4, human somatostatin receptor protein subtype 3 (SSTR3) (human, UniProt P32745 1-418).
T4 construct: whole, on cells; also called cell line SSTR3-15-19
The assay is described as above. The procedure: as §2, §3

The target of assay [5] is human somatostatin receptor protein subtype 4 (SSTR4) (human, UniProt P31391 1-388). The experiment in a line: cell-based or functional assay.
Chain of human somatostatin receptor protein subtype 4 (SSTR4) (P31391 whole entry): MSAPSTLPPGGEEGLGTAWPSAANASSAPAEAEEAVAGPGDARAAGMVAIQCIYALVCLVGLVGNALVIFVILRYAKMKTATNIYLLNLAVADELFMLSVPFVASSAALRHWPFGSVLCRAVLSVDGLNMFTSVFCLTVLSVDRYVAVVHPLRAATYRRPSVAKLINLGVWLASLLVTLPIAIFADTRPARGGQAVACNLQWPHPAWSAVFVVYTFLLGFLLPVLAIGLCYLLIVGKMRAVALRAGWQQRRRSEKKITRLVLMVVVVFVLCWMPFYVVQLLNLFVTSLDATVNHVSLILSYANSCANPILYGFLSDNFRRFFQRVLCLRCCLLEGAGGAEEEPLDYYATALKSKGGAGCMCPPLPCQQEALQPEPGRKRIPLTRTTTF
Assay [6] has as its target T3, human somatostatin receptor protein …. The experiment in a line: cell-based or functional assay.
Assay [7] concerns the target T4, human somatostatin receptor protein …. Nature of the assay: cell-based or functional assay.
Assay [8] deals with T5, human somatostatin receptor protein subtype 5 (SSTR5) (human, UniProt P35346 1-364). Nature of the assay: cell-based or functional assay.
T5 sequence (P35346 whole entry): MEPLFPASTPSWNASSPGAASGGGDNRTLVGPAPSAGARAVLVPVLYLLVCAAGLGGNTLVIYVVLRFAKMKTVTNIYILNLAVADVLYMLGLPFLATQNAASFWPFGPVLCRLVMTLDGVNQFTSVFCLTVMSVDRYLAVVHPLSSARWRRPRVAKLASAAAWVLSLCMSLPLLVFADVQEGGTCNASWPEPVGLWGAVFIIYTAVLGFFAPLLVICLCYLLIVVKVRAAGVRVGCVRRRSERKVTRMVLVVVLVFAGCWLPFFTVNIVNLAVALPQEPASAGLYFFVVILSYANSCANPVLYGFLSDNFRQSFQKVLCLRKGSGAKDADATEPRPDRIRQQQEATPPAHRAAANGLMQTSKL
The target of assay [9] is T6, human somatostatin receptor protein subtype 1 (SSTR1) (human, UniProt P30872 1-391).
T6 construct: whole, on cells; also called cell line SSTR1-8-3
T6 sequence (P30872 whole entry): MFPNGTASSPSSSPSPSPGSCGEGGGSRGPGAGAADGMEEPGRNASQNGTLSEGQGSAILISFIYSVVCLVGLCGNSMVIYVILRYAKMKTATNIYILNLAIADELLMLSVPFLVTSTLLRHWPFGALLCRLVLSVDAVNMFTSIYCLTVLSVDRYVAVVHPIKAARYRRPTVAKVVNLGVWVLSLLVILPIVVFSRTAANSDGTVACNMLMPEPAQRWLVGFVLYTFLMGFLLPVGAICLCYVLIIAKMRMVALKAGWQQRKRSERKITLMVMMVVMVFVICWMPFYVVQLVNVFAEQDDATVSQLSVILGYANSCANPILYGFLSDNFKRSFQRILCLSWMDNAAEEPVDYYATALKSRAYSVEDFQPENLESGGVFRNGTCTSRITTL
Nature of the assay: displacement of 200 pM [125I]-somatostatin from membrane fraction of CHO cells expressing the human receptor; filter binding, Hill plot. As to the method: as §2, §3

For assay [10], the target named is T5, human somatostatin receptor protein …. The description is as above. As to the method:
as §2, §3

Where a SMILES comes first, the peptide text is derived from it. Bridges are numbered along the chain shown (N, C = ends). Where no end group is shown, it is not given here.

T4 sequence (P32745 whole entry): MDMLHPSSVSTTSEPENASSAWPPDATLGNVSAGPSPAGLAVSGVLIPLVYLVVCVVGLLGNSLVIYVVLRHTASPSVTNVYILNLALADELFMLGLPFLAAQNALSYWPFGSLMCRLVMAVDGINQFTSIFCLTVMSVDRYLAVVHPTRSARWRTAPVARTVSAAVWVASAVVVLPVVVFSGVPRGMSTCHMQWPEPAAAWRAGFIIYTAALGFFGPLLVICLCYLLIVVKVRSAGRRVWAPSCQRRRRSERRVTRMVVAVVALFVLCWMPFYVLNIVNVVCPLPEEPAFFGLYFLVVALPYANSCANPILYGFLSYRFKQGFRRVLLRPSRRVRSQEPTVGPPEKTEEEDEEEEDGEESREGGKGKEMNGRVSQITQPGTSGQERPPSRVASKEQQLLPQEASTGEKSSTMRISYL
T2 sequence (P35346 whole entry): as the sequence (P35346 whole entry) above
T1 sequence (P31391 whole entry): as the sequence (P31391 whole entry) above

For `C[C@@H](O)[C@@H]1NC(=O)[C@H](CCCCN)NC(=O)[C@H](Cc2c[nH]c3ccccc23)NC(=O)[C@H](Cc2ccccc2)NC(=O)[C@H](Cc2ccccc2)NC(=O)[C@H](CC(N)=O)NC(=O)[C@H](CCCNC(=N)N)NC(=O)[C@@H](N)CSSC[C@@H](C(=O)N[C@@H](CCCCN)C(=O)O)NC(=O)[C@H](CO)NC(=O)[C@H](CO)NC(=O)[C@H](Cc2ccccc2)NC1=O` [hCS-13] (H-CRNFFWKTFSSCK-OH; disulfide 1-12; N-terminus and C-terminus assumed), the IC50 in assay [1] and in assay [2] was 0.5 nM throughout.
Consider MPCRNFFWKTFSSCK (disulfide 3-14) [deletion type human peptide hCS-15], for which the results for the IC50 in assay [3] and in [4] were 0.8 nM and 0.9 nM, respectively. The “ED50 of inhibition of forskolin-stimulated intracellular cAMP accumulation” value in assay [5] stood at 0.2 nM; in assay [6], 7 nM; in assay [7], 1 nM; in assay [8] it was 0.2 nM.
Regarding CRNFFWKTFSSCK (disulfide 1-12) [deletion type human peptide hCS-13], the half-maximal inhibitory concentration (IC50) was determined as 0.3 nM in [3], 6 nM in assay [9] and 0.7 nM in assay [4].
DRMPCRNFFWKTFSSCK (disulfide 5-16) [human peptide hCS-17]: the concentration for half-maximal inhibition (IC50) came out at 0.6 nM in [3], 0.6 nM in assay [4] and 0.4 nM in [10]. Also, the “ED50 of inhibition of forskolin-stimulated intracellular cAMP accumulation” value in assay [5] was 0.1 nM; in [6] it was 5 nM; in [7], 1 nM; in assay [8] it was 0.2 nM.

By IC50 is commonly meant the concentration needed to halve the response being measured.
